In patent publication US20180155451A1 (published 2018):

T1: FcγRIIa R (extracellular domain with a His tag at the C terminus) (human, UniProt P12318 34-217)
T1 construct: extracellular domain; expressed in FreeStyle293 cells; also called FcgRIIa R; FcγRIIa type R; not shown: His tag at the C terminus
T1 sequence (looked up): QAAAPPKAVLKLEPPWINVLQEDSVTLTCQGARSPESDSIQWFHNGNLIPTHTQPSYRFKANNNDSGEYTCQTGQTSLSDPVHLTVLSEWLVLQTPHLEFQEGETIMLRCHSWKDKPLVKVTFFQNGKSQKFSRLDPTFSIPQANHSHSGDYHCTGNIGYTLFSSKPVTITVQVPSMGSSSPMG


Each binder was assayed against T1, FcγRIIa R (extracellular domain with a …) (assay: SPR Biacore, relative binding).

| Binder | He/Con_2aR |
| --- | --- |
| GpH7-A5/GpH7-B3 variant P271_08L/GpL16-k0 (antibody, human IgG1, kappa, heterodimerized; mutation in one H chain; also called He Ab) heavy 1: not shown heavy 2: not shown light: DIVMTQSPLSLPVTPGEPASISCQASESLVHSNRNTYLHWYLQKPGQSPQLLIYKVSNRFSGVPDRFSGSGSGTDFTLKISRVEAEDVGVYYCSQNTHVPPTFGQGTKVEIERTVAAPSVFIFPPSDEQLKSGTASVVCLLNNFYPREAKVQWKVDNALQSGNSQESVTEQDSKDSTYSLSSTLTLSKADYEKHKVYACEVTHQGLSSPVTKSFNRGEC | 104 % of GpH7-A5/GpH7-B3/GpL16-k0 (=100) |
| GpH7-A5/GpH7-B3 variant L328_13S/GpL16-k0 (antibody, human IgG1, kappa, heterodimerized; mutation in one H chain; also called He Ab) heavy 1: not shown heavy 2: not shown light: DIVMTQSPLSLPVTPGEPASISCQASESLVHSNRNTYLHWYLQKPGQSPQLLIYKVSNRFSGVPDRFSGSGSGTDFTLKISRVEAEDVGVYYCSQNTHVPPTFGQGTKVEIERTVAAPSVFIFPPSDEQLKSGTASVVCLLNNFYPREAKVQWKVDNALQSGNSQESVTEQDSKDSTYSLSSTLTLSKADYEKHKVYACEVTHQGLSSPVTKSFNRGEC | 117 % of GpH7-A5/GpH7-B3/GpL16-k0 (=100) |
| GpH7-A5/GpH7-B3 variant K334_08L/GpL16-k0 (antibody, human IgG1, kappa, heterodimerized; mutation in one H chain; also called He Ab) heavy 1: not shown heavy 2: not shown light: DIVMTQSPLSLPVTPGEPASISCQASESLVHSNRNTYLHWYLQKPGQSPQLLIYKVSNRFSGVPDRFSGSGSGTDFTLKISRVEAEDVGVYYCSQNTHVPPTFGQGTKVEIERTVAAPSVFIFPPSDEQLKSGTASVVCLLNNFYPREAKVQWKVDNALQSGNSQESVTEQDSKDSTYSLSSTLTLSKADYEKHKVYACEVTHQGLSSPVTKSFNRGEC | 106 % of GpH7-A5/GpH7-B3/GpL16-k0 (=100) |
| GpH7-A5/GpH7-B3 variant P238_03V/GpL16-k0 (antibody, human IgG1, kappa, heterodimerized; mutation in one H chain; also called He Ab) heavy 1: not shown heavy 2: not shown light: DIVMTQSPLSLPVTPGEPASISCQASESLVHSNRNTYLHWYLQKPGQSPQLLIYKVSNRFSGVPDRFSGSGSGTDFTLKISRVEAEDVGVYYCSQNTHVPPTFGQGTKVEIERTVAAPSVFIFPPSDEQLKSGTASVVCLLNNFYPREAKVQWKVDNALQSGNSQESVTEQDSKDSTYSLSSTLTLSKADYEKHKVYACEVTHQGLSSPVTKSFNRGEC | 120 % of GpH7-A5/GpH7-B3/GpL16-k0 (=100) |
| GpH7-A5/GpH7-B3 variant L235_20W/GpL16-k0 (antibody, human IgG1, kappa, heterodimerized; mutation in one H chain; also called He Ab) heavy 1: not shown heavy 2: not shown light: DIVMTQSPLSLPVTPGEPASISCQASESLVHSNRNTYLHWYLQKPGQSPQLLIYKVSNRFSGVPDRFSGSGSGTDFTLKISRVEAEDVGVYYCSQNTHVPPTFGQGTKVEIERTVAAPSVFIFPPSDEQLKSGTASVVCLLNNFYPREAKVQWKVDNALQSGNSQESVTEQDSKDSTYSLSSTLTLSKADYEKHKVYACEVTHQGLSSPVTKSFNRGEC | 131 % of GpH7-A5/GpH7-B3/GpL16-k0 (=100) |

Other lines, results leading:

| He/Con_2aR | Binder |
| --- | --- |
| 109 % of GpH7-A5/GpH7-B3/GpL16-k0 (=100) | GpH7-A5/GpH7-B3 variant K334_13S/GpL16-k0 (antibody, human IgG1, kappa, heterodimerized; mutation in one H chain; also called He Ab) heavy 1: not shown heavy 2: not shown light: DIVMTQSPLSLPVTPGEPASISCQASESLVHSNRNTYLHWYLQKPGQSPQLLIYKVSNRFSGVPDRFSGSGSGTDFTLKISRVEAEDVGVYYCSQNTHVPPTFGQGTKVEIERTVAAPSVFIFPPSDEQLKSGTASVVCLLNNFYPREAKVQWKVDNALQSGNSQESVTEQDSKDSTYSLSSTLTLSKADYEKHKVYACEVTHQGLSSPVTKSFNRGEC |
| 119 % of GpH7-A5/GpH7-B3/GpL16-k0 (=100) | GpH7-A5/GpH7-B3 variant L328_14T/GpL16-k0 (antibody, human IgG1, kappa, heterodimerized; mutation in one H chain; also called He Ab) heavy 1: not shown heavy 2: not shown light: DIVMTQSPLSLPVTPGEPASISCQASESLVHSNRNTYLHWYLQKPGQSPQLLIYKVSNRFSGVPDRFSGSGSGTDFTLKISRVEAEDVGVYYCSQNTHVPPTFGQGTKVEIERTVAAPSVFIFPPSDEQLKSGTASVVCLLNNFYPREAKVQWKVDNALQSGNSQESVTEQDSKDSTYSLSSTLTLSKADYEKHKVYACEVTHQGLSSPVTKSFNRGEC |
| 103 % of GpH7-A5/GpH7-B3/GpL16-k0 (=100) | GpH7-A5/GpH7-B3 variant K334_05P/GpL16-k0 (antibody, human IgG1, kappa, heterodimerized; mutation in one H chain; also called He Ab) heavy 1: not shown heavy 2: not shown light: DIVMTQSPLSLPVTPGEPASISCQASESLVHSNRNTYLHWYLQKPGQSPQLLIYKVSNRFSGVPDRFSGSGSGTDFTLKISRVEAEDVGVYYCSQNTHVPPTFGQGTKVEIERTVAAPSVFIFPPSDEQLKSGTASVVCLLNNFYPREAKVQWKVDNALQSGNSQESVTEQDSKDSTYSLSSTLTLSKADYEKHKVYACEVTHQGLSSPVTKSFNRGEC |
| 109 % of GpH7-A5/GpH7-B3/GpL16-k0 (=100) | GpH7-A5/GpH7-B3 variant I332_06M/GpL16-k0 (antibody, human IgG1, kappa, heterodimerized; mutation in one H chain; also called He Ab) heavy 1: not shown heavy 2: not shown light: DIVMTQSPLSLPVTPGEPASISCQASESLVHSNRNTYLHWYLQKPGQSPQLLIYKVSNRFSGVPDRFSGSGSGTDFTLKISRVEAEDVGVYYCSQNTHVPPTFGQGTKVEIERTVAAPSVFIFPPSDEQLKSGTASVVCLLNNFYPREAKVQWKVDNALQSGNSQESVTEQDSKDSTYSLSSTLTLSKADYEKHKVYACEVTHQGLSSPVTKSFNRGEC |
| 136 % of GpH7-A5/GpH7-B3/GpL16-k0 (=100) | GpH7-A5/GpH7-B3 variant K326_15Y/GpL16-k0 (antibody, human IgG1, kappa, heterodimerized; mutation in one H chain; also called He Ab) heavy 1: not shown heavy 2: not shown light: DIVMTQSPLSLPVTPGEPASISCQASESLVHSNRNTYLHWYLQKPGQSPQLLIYKVSNRFSGVPDRFSGSGSGTDFTLKISRVEAEDVGVYYCSQNTHVPPTFGQGTKVEIERTVAAPSVFIFPPSDEQLKSGTASVVCLLNNFYPREAKVQWKVDNALQSGNSQESVTEQDSKDSTYSLSSTLTLSKADYEKHKVYACEVTHQGLSSPVTKSFNRGEC |
| 105 % of GpH7-A5/GpH7-B3/GpL16-k0 (=100) | GpH7-A5/GpH7-B3 variant K334_02A/GpL16-k0 (antibody, human IgG1, kappa, heterodimerized; mutation in one H chain; also called He Ab) heavy 1: not shown heavy 2: not shown light: DIVMTQSPLSLPVTPGEPASISCQASESLVHSNRNTYLHWYLQKPGQSPQLLIYKVSNRFSGVPDRFSGSGSGTDFTLKISRVEAEDVGVYYCSQNTHVPPTFGQGTKVEIERTVAAPSVFIFPPSDEQLKSGTASVVCLLNNFYPREAKVQWKVDNALQSGNSQESVTEQDSKDSTYSLSSTLTLSKADYEKHKVYACEVTHQGLSSPVTKSFNRGEC |
